Results from paper PMC2570039 (Molecular cell, 2008).

B1: Seleno-methionine-substituted Pseudomonas aeruginosa FtsK γ-domain (GGS-742-811) (domain or fragment)
chain: GGSEGSEDDPLYDEAVRFVTESRRASISAVQRKLKIGYNRAARMIEAMEMAGVVTPMNTNGSREVIAPAPVRD
modifications: seleno-methionine-substituted

Assays:
[1] = target: FtsK50C (50 amino acids from FtsKN fused to FtsKC) (E. coli); experiment: […]
[2] = target: FtsK50C (50 amino acids from FtsKN fused to FtsKC) (E. coli); experiment: SEC
crystal structure = target: the molecule itself; experiment: crystal structure

Molecule	stoichiometry N [1]	stoichiometry N [2]	binding result (crystal structure)
FtsK50C (50 amino acids from FtsKN fused to FtsKC) (domain or fragment)	6	6	–
B1	–	–	binds
